Patent US20190233512A1 (SUTRO BIOPHARMA, published 2019)
Numbering of substitutions follows the chain as printed.

B1: SRP1848-B11 (antibody, V domains shown)
VH: EVQLVESGGGLVQPGGSLRLSCAASGFNIGNNSIHWVRQAPGKGLEWVGDISPIDGFTDYADSVKGRFTISADTSKNTAYLQMNSLRAEDTAVYYCARGSWSWRAGYGYYLDYWGQGTLVTVSS
VL: not shown
notes: VH/VL only; Fc-bearing IgG format with trastuzumab LC, HIS/FLAG-tagged, cell-free expressed; constant regions not tied; also called Antibody 17
B2: SRP1848-D10 (antibody, V domains shown)
VH: B1 VH with G30S, N31R, D50W, I54N, F57T, T74G, S100A, A105S, L111I
VL: not shown
notes: VH/VL only; Fc-bearing IgG format with trastuzumab LC, HIS/FLAG-tagged, cell-free expressed; constant regions not tied; also called Antibody 30
B3: SRP1848-D04 (antibody, V domains shown)
VH: EVQLVESGGGLVQPGGSLRLSCAASGFNISHYSIHWVRQAPGKGLEWVGEIYPRDGITDYADSVKGRFTISADTSKNTAYLQMNSLSAEDTAVYYCARGYWFWRSGYGYYLDYWGQGTLVTVSS
VL: not shown
notes: VH/VL only; Fc-bearing IgG format with trastuzumab LC, HIS/FLAG-tagged, cell-free expressed; constant regions not tied; also called Antibody 26
B4: SRP1848-E02 (antibody, V domains shown)
VH: B1 VH with N31K, N32Y, D50E, S52Y, I54N, F57N, A105S
VL: not shown
notes: VH/VL only; Fc-bearing IgG format with trastuzumab LC, HIS/FLAG-tagged, cell-free expressed; constant regions not tied; also called Antibody 32
B5: SRP1848-B06 (antibody, V domains shown)
VH: B1 VH with G30S, N32Y, S33Y, D50G, S52T, F57Y, S100F, R104P, A105S, L111Q
VL: not shown
notes: VH/VL only; Fc-bearing IgG format with trastuzumab LC, HIS/FLAG-tagged, cell-free expressed; constant regions not tied; also called Antibody 13
B6: SRP1848-D05 (antibody, V domains shown)
VH: B1 VH with G30S, N31I, N32S, S33Y, D50G, F57Y
VL: not shown
notes: VH/VL only; Fc-bearing IgG format with trastuzumab LC, HIS/FLAG-tagged, cell-free expressed; constant regions not tied; also called Antibody 27
B7: SRP1848-A08 (antibody, V domains shown)
VH: B1 VH with F27S, G30R, N31K, N32H, D50S, S52Y, I54N, F57T, S102F
VL: not shown
notes: VH/VL only; Fc-bearing IgG format with trastuzumab LC, HIS/FLAG-tagged, cell-free expressed; constant regions not tied; also called Antibody 6
B8: SRP1848-C05 (antibody, V domains shown)
VH: B1 VH with G30R, N31K, N32Y, S52F, F57I, T58N, R104K
VL: not shown
notes: VH/VL only; Fc-bearing IgG format with trastuzumab LC, HIS/FLAG-tagged, cell-free expressed; constant regions not tied; also called Antibody 21
B9: SRP1848-B09 (antibody, V domains shown)
VH: EVQLVESGGGLVQPGGSLRLSCAAGGFNITNYYIHWVRQAPGKGLEWVGGITPVDGYTDYADRVKGRFTISADTSKNTAYLQMNSLRAEDTAVYYCARGAWSWRSGYGYYMDYWGQGTLVTVSS
VL: not shown
notes: VH/VL only; Fc-bearing IgG format with trastuzumab LC, HIS/FLAG-tagged, cell-free expressed; constant regions not tied; also called Antibody 15
B10: SRP1848-F08 (antibody, V domains shown)
VH: EVQLVESGGGLVQPGGSLRLSCAAGGFNISNHSIHWVRQAPGKGVEWVGEIYPVDGITDYADSVKGRFTISADTSKNTAYLRMNSLRAEDTAVYYCARGSWYWQSGYSYYLDYWGQGTLVTVSS
VL: not shown
notes: VH/VL only; Fc-bearing IgG format with trastuzumab LC, HIS/FLAG-tagged, cell-free expressed; constant regions not tied; also called Antibody 43
B11: SRP1848-C04 (antibody, V domains shown)
VH: B1 VH with G30R, N31H, N32Y, D50E, S52Y, I54G, D55P, F57N, W101L
VL: not shown
notes: VH/VL only; Fc-bearing IgG format with trastuzumab LC, HIS/FLAG-tagged, cell-free expressed; constant regions not tied; also called Antibody 20
B12: SRP1848-C03 (antibody, V domains shown)
VH: B1 VH with N31V, N32Y, D50E, S52Y, F57N, S102A, A105S, G108S
VL: not shown
notes: VH/VL only; Fc-bearing IgG format with trastuzumab LC, HIS/FLAG-tagged, cell-free expressed; constant regions not tied; also called Antibody 19
B13: SRP1848-B03 (antibody, V domains shown)
VH: B1 VH with G30S, N31M, N32K, S33Y, D50G, S52T, F57M, R104P, A105S, G108S
VL: not shown
notes: VH/VL only; Fc-bearing IgG format with trastuzumab LC, HIS/FLAG-tagged, cell-free expressed; constant regions not tied; also called Antibody 10
B14: SRP1848-C10 (antibody, V domains shown)
VH: B1 VH with G30R, N31T, N32Y, S33Y, D50G, F57Y, R104P
VL: not shown
notes: VH/VL only; Fc-bearing IgG format with trastuzumab LC, HIS/FLAG-tagged, cell-free expressed; constant regions not tied; also called Antibody 23
B15: SRP1848-A06 (antibody, V domains shown)
VH: B9 VH with G25S, T30G, Y32S, V54I, Y57N, R63S, M111I
VL: not shown
notes: VH/VL only; Fc-bearing IgG format with trastuzumab LC, HIS/FLAG-tagged, cell-free expressed; constant regions not tied; also called Antibody 4
B16: SRP1848-D02 (antibody, V domains shown)
VH: B9 VH with G25S, T30S, N31H, Y32N, V54Q, R63S, S85R, S105A, M111L
VL: not shown
notes: VH/VL only; Fc-bearing IgG format with trastuzumab LC, HIS/FLAG-tagged, cell-free expressed; constant regions not tied; also called Antibody 24
B17: SRP1848-B10 (antibody, V domains shown)
VH: B3 VH with I29T, S30T, H31T, Y32K, S87R, Y100G, F102H, G108S
VL: not shown
notes: VH/VL only; Fc-bearing IgG format with trastuzumab LC, HIS/FLAG-tagged, cell-free expressed; constant regions not tied; also called Antibody 16

molecular target: T1, Human folate receptor alpha (hFOLR1) (human, UniProt P15328 25-234); assay: FACS, CHO-hFOLR1 cells
T1 construct: Stably expressed on CHO cells (CHO-hFOLR1) for flow cytometry; endogenous on FOLR1-positive KB and Igrov1 cells in the killing assay; also called human FOLR1; FolRα
T1 sequence (P15328 25-234 limits assumed): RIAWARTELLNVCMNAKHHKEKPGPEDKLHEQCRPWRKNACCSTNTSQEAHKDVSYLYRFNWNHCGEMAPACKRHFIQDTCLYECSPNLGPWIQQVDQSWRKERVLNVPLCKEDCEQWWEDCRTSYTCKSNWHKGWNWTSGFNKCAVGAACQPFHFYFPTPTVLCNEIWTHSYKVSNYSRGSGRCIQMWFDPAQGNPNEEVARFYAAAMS
Description: CHO cells were transfected to stably express human (CHO-hFOLR1), cynomolgus (CHO-cFOLR1), or mouse (CHO-mFOLR1) target molecule FOLR1 on the cell surface. Parental CHO cells were used as a negative control to determine background binding levels. Parental CHO and stably transfected CHO-hFOLR1, CHO-cFOLR1, and CHO-mFOLR1 cells were cultured in Ham's F-12: high glucose DMEM (50:50) (Corning, Cellgro-Mediatech) supplemented with 10% heat-inactivated fetal bovine serum (Corning, Cellgro-Mediatech), 1% Penicillin/Streptomycin (Corning, Cellgro-Mediatech) and 2 mmol/L-glutamax (Life Technology).
A mixture of fluoresecent-labeled parental CHO cells and unlabeled CHO-hFOLRlcells were prepared as follows. Parental CHO cells were washed twice in PBS and incubated in PBS containing with 1 nM CellTrace™ Oregon Green488® (Life Technologies) at 37° C. for 30 minutes. Labeled parental CHO cells were then washed 2× with Ham's F-12 media and 2× with FACS buffer (PBS with 1% bovine serum albumin). Unlabeled CHO-hFOLR1 cells were similarly washed and prepared. Labeled parental CHO and unlabeled CHO-hFOLR1 cells were combined at 1:1 ratio and seeded at 50 μL per well (200,000 cells per well) in 96 well polypropylene plates. Cells were mixed with 50 μL of test antibodies (i.e., anti-FOLR1 variants) serially diluted in FACS buffer and incubated on ice for 60 mins. Cells were washed with FACS buffer and incubated on ice for 60 mins with 100 μL FACS buffer containing 2.5 μg/mL R-Phycoerythrin-conjugated goat anti-Human IgG (Jackson ImmunoResearch Laboratories, West Grove, Pa.). Cells were washed twice with FACS buffer, fixed in 2% paraformaldehyde in PBS (Santa Cruz Biotechnology; Dallas, Tex.) for 10 mins on ice in the dark, and analyzed using the BD LSR II Flow Cytometer (BD Biosciences; San Jose, Calif.). Data were analyzed using FlowJo® software (FlowJo, LLC; Ashland, Oreg.) to determine mean fluorescence intensities. Binding constants were calculated using the statistical software, GraphPad Prism (GraphPad Software; La Jolla, Calif.) using the nonlinear regression equation, one site-specific binding with Hill slope. Secondary antibody alone was used as a control, in addition to measuring non-specific antibody binding to CHO parental cells.

Bmax	Binder
28400 MFI	B1
26500 MFI	B2
29300 MFI	B3
23800 MFI	B4
25100 MFI	B5
26700 MFI	B6
28600 MFI	B7
26800 MFI	B8
25200 MFI	B9
26500 MFI	B10
26300 MFI	B11
29100 MFI	B12
26300 MFI	B13
27500 MFI	B14
24500 MFI	B15
28800 MFI	B16
28200 MFI	B17

molecular target: T2, Cynomolgus folate receptor alpha (cynomolgus monkey, UniProt P15328 25-234 (human entry)); assay: FACS, CHO-cFOLR1 cells
T2 construct: Stably expressed on CHO cells (CHO-cFOLR1); also called cynomolgus FOLR1; CHO-cFOLR1
T2 sequence (P15328 other isoform, or with tags, fused parts or gaps limits assumed): as the sequence (P15328 25-234 limits assumed) above, with I2T, W4R, R37K, Q117R, A146P, H171Y counted along it

Bmax	Binder
22900 MFI	B1
20600 MFI	B2
25700 MFI	B3
18700 MFI	B4
26800 MFI	B5
22200 MFI	B6
26200 MFI	B7
15200 MFI	B8
25200 MFI	B9
21000 MFI	B10
22000 MFI	B11
25100 MFI	B12
17200 MFI	B13
16000 MFI	B14
20200 MFI	B15
28000 MFI	B16
21300 MFI	B17

molecular target: T3, Murine folate receptor alpha (mouse, UniProt P35846 25-232); assay: FACS, CHO-mFOLR1 cells
T3 construct: Stably expressed on CHO cells (CHO-mFOLR1); also called mouse FOLR1; CHO-mFOLR1
T3 sequence (P35846 25-232 limits assumed): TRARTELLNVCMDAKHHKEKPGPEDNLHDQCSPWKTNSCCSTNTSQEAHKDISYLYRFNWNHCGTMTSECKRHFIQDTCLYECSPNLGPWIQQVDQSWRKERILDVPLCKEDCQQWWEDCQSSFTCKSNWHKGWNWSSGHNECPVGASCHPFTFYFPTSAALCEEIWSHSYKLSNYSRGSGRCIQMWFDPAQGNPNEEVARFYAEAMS

Bmax	Binder
1630 MFI	B1
1860 MFI	B2
1470 MFI	B4
1360 MFI	B6
3200 MFI	B7
4130 MFI	B8
1420 MFI	B9
2510 MFI	B11
3310 MFI	B12
2720 MFI	B13
2330 MFI	B14
2770 MFI	B15
916 MFI	B16
2460 MFI	B17
